Measured values as given in publication doi:10.1101/2025.05.28.656718.

Target: His-tagged PKM1 (human) (UniProt P14618)
Assay: AlphaScreen or HTRF

Sequence of Pep-SP1 (Q6SZW1 whole entry, looked up): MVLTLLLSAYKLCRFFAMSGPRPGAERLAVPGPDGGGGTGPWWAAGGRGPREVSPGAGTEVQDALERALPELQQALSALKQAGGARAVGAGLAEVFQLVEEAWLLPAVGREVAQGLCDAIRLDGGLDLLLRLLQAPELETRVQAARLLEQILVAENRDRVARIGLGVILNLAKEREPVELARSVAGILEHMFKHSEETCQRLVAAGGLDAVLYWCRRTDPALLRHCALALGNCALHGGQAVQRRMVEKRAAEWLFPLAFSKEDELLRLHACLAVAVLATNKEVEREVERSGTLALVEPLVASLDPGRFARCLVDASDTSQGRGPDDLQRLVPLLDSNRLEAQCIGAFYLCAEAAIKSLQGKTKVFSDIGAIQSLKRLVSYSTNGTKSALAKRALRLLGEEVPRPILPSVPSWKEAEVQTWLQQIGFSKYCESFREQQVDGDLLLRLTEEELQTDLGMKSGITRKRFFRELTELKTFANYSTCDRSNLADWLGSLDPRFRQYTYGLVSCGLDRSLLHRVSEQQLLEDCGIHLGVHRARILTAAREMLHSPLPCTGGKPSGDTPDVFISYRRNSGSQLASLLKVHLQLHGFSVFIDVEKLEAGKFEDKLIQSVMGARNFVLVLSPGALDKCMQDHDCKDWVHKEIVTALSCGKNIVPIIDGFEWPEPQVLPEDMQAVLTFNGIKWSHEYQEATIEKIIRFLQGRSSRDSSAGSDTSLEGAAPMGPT

IC50: 1.07 µM
Substance: Pep-SP1 (from UniProt Q6SZW1 645-655) (peptide)
